Results published in the supplement of paper PMC9112550, “Optimization of the antimicrobial peptide Bac7 by deep mutational scanning” (BMC Biology, 2022).

tested on: Escherichia coli TOP10; test: shrunken log2 fold change of peptide-encoding DNA abundance (4.5 h post-induction vs induction); higher = less antimicrobial activity (less host growth inhibition); details: time post-induction: 4.5 h; library: site-saturation at positions 5, 18, 19, 20
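Note: peptides expressed intracellularly from a pBAD plasmid library in pooled LB shake-flask culture, induced with 0.3% L-arabinose, DNA abundance read by NGS, three biological replicates, DESeq2 with apeglm shrinkage.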

Sequence | shrunken log2 fold change
RRIRSRPPRLPRPRPRPSSKPRP | -0.219
RRIRSRPPRLPRPRPRPSSTPRP | -0.397
RRIRSRPPRLPRPRPRPSTDPRP | -0.168
RRIRSRPPRLPRPRPRPSVAPRP | 0.575
RRIRSRPPRLPRPRPRPSVIPRP | -0.602
RRIRSRPPRLPRPRPRPSYAPRP | -0.835
RRIRSRPPRLPRPRPRPTAAPRP | 1.03
RRIRSRPPRLPRPRPRPTAWPRP | 0.47
RRIRSRPPRLPRPRPRPTCLPRP | -0.117
RRIRSRPPRLPRPRPRPTCSPRP | 0.0811
RRIRSRPPRLPRPRPRPTEHPRP | -0.0545
RRIRSRPPRLPRPRPRPTFIPRP | -0.173
RRIRSRPPRLPRPRPRPTIDPRP | -0.00141
RRIRSRPPRLPRPRPRPTIHPRP | -0.51
RRIRSRPPRLPRPRPRPTIQPRP | -0.305
RRIRSRPPRLPRPRPRPTKEPRP | -0.441
RRIRSRPPRLPRPRPRPTMFPRP | -0.0103
RRIRSRPPRLPRPRPRPTMGPRP | -0.238
RRIRSRPPRLPRPRPRPTMSPRP | -0.0133
RRIRSRPPRLPRPRPRPTMTPRP | 0.391
RRIRSRPPRLPRPRPRPTPHPRP | 0.308
RRIRSRPPRLPRPRPRPTQAPRP | 0.0131

Sequence | shrunken log2 fold change
RRIRSRPPRLPRPRPRPTQEPRP | 0.342
RRIRSRPPRLPRPRPRPTQTPRP | 1.09
RRIRSRPPRLPRPRPRPTRDPRP | 0.701
RRIRSRPPRLPRPRPRPTSHPRP | -0.0965
RRIRSRPPRLPRPRPRPTSMPRP | -0.187
RRIRSRPPRLPRPRPRPTTGPRP | 0.0655
RRIRSRPPRLPRPRPRPTTYPRP | -0.359
RRIRSRPPRLPRPRPRPTVGPRP | 0.187
RRIRSRPPRLPRPRPRPTVIPRP | -0.0891
RRIRSRPPRLPRPRPRPTWMPRP | 0.0331
RRIRSRPPRLPRPRPRPTYVPRP | -0.098
RRIRSRPPRLPRPRPRPVAFPRP | 0.0876
RRIRSRPPRLPRPRPRPVCHPRP | -0.388
RRIRSRPPRLPRPRPRPVDHPRP | -0.00391
RRIRSRPPRLPRPRPRPVDWPRP | 0.306
RRIRSRPPRLPRPRPRPVEDPRP | -0.0519
RRIRSRPPRLPRPRPRPVEWPRP | 0.31
RRIRSRPPRLPRPRPRPVEYPRP | -0.553
RRIRSRPPRLPRPRPRPVFMPRP | -0.236
RRIRSRPPRLPRPRPRPVFSPRP | -0.43
RRIRSRPPRLPRPRPRPVHDPRP | -0.0657
RRIRSRPPRLPRPRPRPVHSPRP | 0.139

Sequence | shrunken log2 fold change
RRIRSRPPRLPRPRPRPVIIPRP | -0.254
RRIRSRPPRLPRPRPRPVIPPRP | -0.156
RRIRSRPPRLPRPRPRPVIYPRP | -0.226
RRIRSRPPRLPRPRPRPVKAPRP | 0.0824
RRIRSRPPRLPRPRPRPVKFPRP | 0.0903
RRIRSRPPRLPRPRPRPVKLPRP | -0.104
RRIRSRPPRLPRPRPRPVMHPRP | 0.00492
RRIRSRPPRLPRPRPRPVPAPRP | 0.122
RRIRSRPPRLPRPRPRPVPVPRP | 0.362
RRIRSRPPRLPRPRPRPVQMPRP | 0.0426
RRIRSRPPRLPRPRPRPVRAPRP | 0.655
RRIRSRPPRLPRPRPRPVREPRP | 0.723
RRIRSRPPRLPRPRPRPVRFPRP | 0.488
RRIRSRPPRLPRPRPRPVTYPRP | -0.273
RRIRSRPPRLPRPRPRPVVAPRP | 0.608
RRIRSRPPRLPRPRPRPVWFPRP | -0.121
RRIRSRPPRLPRPRPRPVWWPRP | 0.131
RRIRSRPPRLPRPRPRPVYDPRP | -0.227
RRIRSRPPRLPRPRPRPVYNPRP | -0.974
RRIRSRPPRLPRPRPRPWARPRP | 0.0355
RRIRSRPPRLPRPRPRPWCLPRP | -0.11
RRIRSRPPRLPRPRPRPWCMPRP | -0.781

Sequence | shrunken log2 fold change
RRIRSRPPRLPRPRPRPWEDPRP | -0.0124
RRIRSRPPRLPRPRPRPWFFPRP | -0.197
RRIRSRPPRLPRPRPRPWGLPRP | 0.0137
RRIRSRPPRLPRPRPRPWITPRP | -0.305
RRIRSRPPRLPRPRPRPWIVPRP | -0.127
RRIRSRPPRLPRPRPRPWPMPRP | -0.111
RRIRSRPPRLPRPRPRPWQCPRP | -0.19
RRIRSRPPRLPRPRPRPWSGPRP | -0.0339
RRIRSRPPRLPRPRPRPWTWPRP | -0.0804
RRIRSRPPRLPRPRPRPWVEPRP | -0.214
RRIRSRPPRLPRPRPRPWWGPRP | 0.0289
RRIRSRPPRLPRPRPRPWWQPRP | -0.0257
RRIRSRPPRLPRPRPRPWYHPRP | -0.45
RRIRSRPPRLPRPRPRPWYRPRP | -0.119
RRIRSRPPRLPRPRPRPYAQPRP | -0.535
RRIRSRPPRLPRPRPRPYAYPRP | -0.315
RRIRSRPPRLPRPRPRPYCFPRP | -0.544
RRIRSRPPRLPRPRPRPYCKPRP | -0.327
RRIRSRPPRLPRPRPRPYCLPRP | -0.434
RRIRSRPPRLPRPRPRPYCRPRP | -0.512
RRIRSRPPRLPRPRPRPYDEPRP | 0.0261
RRIRSRPPRLPRPRPRPYENPRP | -0.229

Sequence | shrunken log2 fold change
RRIRSRPPRLPRPRPRPYGRPRP | -0.151
RRIRSRPPRLPRPRPRPYGSPRP | -0.0102
RRIRSRPPRLPRPRPRPYIGPRP | -0.121
RRIRSRPPRLPRPRPRPYLEPRP | -0.118
RRIRSRPPRLPRPRPRPYNFPRP | -0.36
RRIRSRPPRLPRPRPRPYNPPRP | -0.953
RRIRSRPPRLPRPRPRPYNWPRP | -0.0406
RRIRSRPPRLPRPRPRPYPKPRP | -0.119
RRIRSRPPRLPRPRPRPYQSPRP | 0.0187
RRIRSRPPRLPRPRPRPYRIPRP | 0.123
RRIRSRPPRLPRPRPRPYSGPRP | -0.328
RRIRSRPPRLPRPRPRPYTCPRP | -0.039
RRIRSRPPRLPRPRPRPYVCPRP | -0.414
RRIRSRPPRLPRPRPRPYYNPRP | -0.906
RRIRTRPPRLPRPRPRPACNPRP | 0.0894
RRIRTRPPRLPRPRPRPACVPRP | 0.235
RRIRTRPPRLPRPRPRPACWPRP | 0.281
RRIRTRPPRLPRPRPRPADEPRP | -0.0108
RRIRTRPPRLPRPRPRPAFIPRP | -0.512
RRIRTRPPRLPRPRPRPAGYPRP | 0.138
RRIRTRPPRLPRPRPRPAHPPRP | 0.396
